# Reference: patent US20060270596A1 (CENTRE NATIONAL DE LA RECHERCHE SCIENTIFIQUE CNRS, published 2006)
# T1: chemokine CXCL2 (UniProt P19875 1-107, limits assumed)
# T1 construct: 35S-labelled in vitro translation product
# T1 sequence (looked up): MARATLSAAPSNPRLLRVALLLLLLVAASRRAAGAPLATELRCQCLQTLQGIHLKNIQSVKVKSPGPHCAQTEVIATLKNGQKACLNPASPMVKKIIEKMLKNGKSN
# T2: human THAP1 (THanatos-Associated-Protein-1), full length (human, UniProt Q9NVV9 1-213)
# T2 construct: these tags are not written into the chain; also called hTHAP1; THAP1 wild type
# T2 sequence: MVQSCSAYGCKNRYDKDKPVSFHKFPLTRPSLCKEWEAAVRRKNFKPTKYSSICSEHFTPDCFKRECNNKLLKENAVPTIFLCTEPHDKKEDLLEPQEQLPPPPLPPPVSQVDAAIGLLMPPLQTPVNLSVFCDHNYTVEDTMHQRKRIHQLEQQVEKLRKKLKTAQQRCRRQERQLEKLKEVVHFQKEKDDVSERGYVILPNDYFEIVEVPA
# T3: THAP1ΔQRCRR mutant (deletion of residues 168-172) (human, UniProt Q9NVV9 1-213)
# T3 sequence: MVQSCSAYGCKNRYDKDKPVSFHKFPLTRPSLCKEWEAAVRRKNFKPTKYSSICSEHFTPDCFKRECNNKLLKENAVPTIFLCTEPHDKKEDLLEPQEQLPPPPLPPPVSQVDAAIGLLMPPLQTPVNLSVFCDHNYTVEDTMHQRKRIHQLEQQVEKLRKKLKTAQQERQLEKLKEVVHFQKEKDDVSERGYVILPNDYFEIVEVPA
# T4: THAP1-N3 deletion mutant (amino acids 1-192) (human, UniProt Q9NVV9 1-192)
# T4 construct: Gal4 fusion, in vitro translation product or GFP fusion according to assay
# T4 sequence: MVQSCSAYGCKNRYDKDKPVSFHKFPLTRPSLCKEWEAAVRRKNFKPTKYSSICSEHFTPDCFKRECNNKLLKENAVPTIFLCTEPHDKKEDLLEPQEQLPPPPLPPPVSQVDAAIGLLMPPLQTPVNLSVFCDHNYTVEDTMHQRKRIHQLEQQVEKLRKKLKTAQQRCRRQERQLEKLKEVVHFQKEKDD
# T5: THAP1-N2 deletion mutant (amino acids 1-166) (human, UniProt Q9NVV9 1-166)
# T5 construct: Gal4 fusion, in vitro translation product or GFP fusion according to assay
# T5 sequence: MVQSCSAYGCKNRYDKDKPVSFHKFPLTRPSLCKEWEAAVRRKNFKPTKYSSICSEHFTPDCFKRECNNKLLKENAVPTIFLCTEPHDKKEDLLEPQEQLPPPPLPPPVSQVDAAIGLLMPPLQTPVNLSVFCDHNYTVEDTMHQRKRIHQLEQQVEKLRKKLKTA
# T6: THAP1-C1 deletion mutant (amino acids 90-213) (human, UniProt Q9NVV9 90-213)
# T6 construct: Gal4 fusion, in vitro translation product or GFP fusion according to assay; also called THAP1-CL; THAP1ΔTHAP
# T6 sequence: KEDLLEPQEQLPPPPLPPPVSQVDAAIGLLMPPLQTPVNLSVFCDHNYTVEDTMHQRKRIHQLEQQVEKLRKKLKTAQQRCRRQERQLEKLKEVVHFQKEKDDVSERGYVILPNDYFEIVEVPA
# How the values were obtained:
# chemokine CXCL2 = molecular target: T1, chemokine CXCL2; test: GST pull-down, 35S-labelled in vitro translated molecule
# [1] = molecular target: T2, human THAP1 …; test: yeast two-hybrid, chemokine bait and THAP1 prey
# [2] = molecular target: T3, THAP1ΔQRCRR mutant (deletion of …); test: yeast two-hybrid, SLC/CCL21 bait
# [3] = molecular target: T7, GST (glutathione S-transferase) control protein (UniProt P08515 1-218 = GST); test: GST pull-down, 35S-labelled in vitro translated SLC/CCL21
# T7 construct: Negative control in GST pull-down assays; also called GST beads; GST alone
# T7 sequence (P08515 whole entry): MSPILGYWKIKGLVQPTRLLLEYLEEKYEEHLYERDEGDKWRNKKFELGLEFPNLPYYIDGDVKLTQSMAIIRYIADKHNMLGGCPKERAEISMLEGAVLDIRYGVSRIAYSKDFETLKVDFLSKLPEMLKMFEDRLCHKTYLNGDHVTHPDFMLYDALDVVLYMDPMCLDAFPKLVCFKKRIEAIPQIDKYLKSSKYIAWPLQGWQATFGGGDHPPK
# Method: To confirm the interaction observed in yeast two-hybrid system, we performed in vitro GST pull down assays. THAP1, expressed as a GST-tagged fusion protein and immobilized on glutathione sepharose, was incubated with radiolabeled in vitro translated SLC/CCL21.
# [4] = molecular target: T4, THAP1-N3 deletion mutant (amino acids …); test: yeast two-hybrid
# [5] = molecular target: T5, THAP1-N2 deletion mutant (amino acids …); test: yeast two-hybrid
# [6] = molecular target: T6, THAP1-C1 deletion mutant (amino acids …); test: yeast two-hybrid
Binder,binding result (chemokine CXCL2),binding result [1],binding result [2],binding result [3],binding result [4],binding result [5],binding result [6]
"GST-THAP3 181-284 (chemokine-binding domain of THAP3) (other, not shown: GST (glutathione S-transferase of pGEX2T) and its linker at the N end) LPPNAEGHVKQVSPRRPQATEAVGRPTGPAGLRRTPNKQPSDHSYALLDLDSLKKKLFLTLKENEKLRKRLQAQRLVMRRMSSRLRACKGHQGLQARLGPEQQS",no binding,–,–,–,–,–,–
"human chemokine SLC/CCL21, mature form (amino acids 24-134) (ligand, GenBank NP-002980; Used as Gal4 fusion in two-hybrid and as 35S-labelled in vitro translation product in pull-downs; also called SLC/6Ckine; SLC/CCL21 wild type) SDGGAQDCCLKYSQRKIPAKVVRSYRKQEPSLGCSIPAILFLPRKRSQAELCADPKELWVQQLMQHLDKTPSPQKPAQGCRKDRGASKTGKKGKGSKGCKRTERSQTPKGP",–,binds,no binding,no binding,no binding,no binding,binds
